Literature values as cited in publication PMC3131494.

Molecular target: eNOS (UniProt P29474)
Chain of UniProt P29474 (P29474 2-1203): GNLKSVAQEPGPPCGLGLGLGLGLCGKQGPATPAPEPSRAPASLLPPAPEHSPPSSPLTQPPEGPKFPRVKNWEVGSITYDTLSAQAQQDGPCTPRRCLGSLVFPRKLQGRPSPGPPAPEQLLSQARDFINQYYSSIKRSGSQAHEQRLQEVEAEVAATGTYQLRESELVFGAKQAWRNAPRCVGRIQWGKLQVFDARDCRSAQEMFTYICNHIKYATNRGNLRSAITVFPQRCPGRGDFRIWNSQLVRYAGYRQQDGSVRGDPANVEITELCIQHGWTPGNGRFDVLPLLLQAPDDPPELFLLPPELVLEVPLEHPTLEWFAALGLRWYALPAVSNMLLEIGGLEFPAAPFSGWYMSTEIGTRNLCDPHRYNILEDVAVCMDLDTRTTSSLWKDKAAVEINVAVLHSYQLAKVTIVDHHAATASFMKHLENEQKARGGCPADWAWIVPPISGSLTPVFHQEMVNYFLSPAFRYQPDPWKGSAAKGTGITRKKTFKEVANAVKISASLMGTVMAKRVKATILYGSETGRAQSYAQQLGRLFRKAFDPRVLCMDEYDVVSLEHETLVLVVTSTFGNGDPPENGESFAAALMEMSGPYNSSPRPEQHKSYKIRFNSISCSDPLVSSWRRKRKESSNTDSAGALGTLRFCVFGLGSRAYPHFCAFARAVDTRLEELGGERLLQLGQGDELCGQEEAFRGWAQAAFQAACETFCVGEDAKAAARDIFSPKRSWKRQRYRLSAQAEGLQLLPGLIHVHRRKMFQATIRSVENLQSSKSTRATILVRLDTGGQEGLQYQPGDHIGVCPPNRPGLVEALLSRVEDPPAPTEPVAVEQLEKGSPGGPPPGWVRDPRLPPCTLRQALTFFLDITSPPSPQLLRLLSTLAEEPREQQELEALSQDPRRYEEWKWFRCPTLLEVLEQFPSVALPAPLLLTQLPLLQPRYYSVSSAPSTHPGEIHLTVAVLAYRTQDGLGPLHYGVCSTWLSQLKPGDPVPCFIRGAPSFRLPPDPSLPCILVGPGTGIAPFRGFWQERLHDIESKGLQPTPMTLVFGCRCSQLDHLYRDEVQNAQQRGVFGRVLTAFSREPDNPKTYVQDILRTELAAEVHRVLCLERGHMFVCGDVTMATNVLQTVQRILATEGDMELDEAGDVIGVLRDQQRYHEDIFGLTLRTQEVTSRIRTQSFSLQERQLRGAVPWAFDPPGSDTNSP

Kd: 30 nM
Substance: dynamin (from UniProt P50570)
